# Measured values as given in publication PMC9637814, “Aurora A–mediated pyruvate kinase M2 phosphorylation promotes biosynthesis with glycolytic metabolites and tumor cell cycle progression” (The Journal of Biological Chemistry, 2022).
# Key:
# [1] = biological target: T1, His-PKM2 (human, UniProt P14618 1-531); assay: pull-down; GST-tagged protein on resin incubated with purified His-PKM2 for 2 h at 4 °C, eluted with 10 mM GSH in 50 mM Tris pH 8.0, immunoblot; settings: both partners purified
# T1 construct: full-length PKM2 cloned into the EcoRI/BamHI sites of pET-22b; also called His-tagged PKM2; His-PKM2 WT; source: E. coli, purified (nickel column)
# T1 sequence (P14618 whole entry): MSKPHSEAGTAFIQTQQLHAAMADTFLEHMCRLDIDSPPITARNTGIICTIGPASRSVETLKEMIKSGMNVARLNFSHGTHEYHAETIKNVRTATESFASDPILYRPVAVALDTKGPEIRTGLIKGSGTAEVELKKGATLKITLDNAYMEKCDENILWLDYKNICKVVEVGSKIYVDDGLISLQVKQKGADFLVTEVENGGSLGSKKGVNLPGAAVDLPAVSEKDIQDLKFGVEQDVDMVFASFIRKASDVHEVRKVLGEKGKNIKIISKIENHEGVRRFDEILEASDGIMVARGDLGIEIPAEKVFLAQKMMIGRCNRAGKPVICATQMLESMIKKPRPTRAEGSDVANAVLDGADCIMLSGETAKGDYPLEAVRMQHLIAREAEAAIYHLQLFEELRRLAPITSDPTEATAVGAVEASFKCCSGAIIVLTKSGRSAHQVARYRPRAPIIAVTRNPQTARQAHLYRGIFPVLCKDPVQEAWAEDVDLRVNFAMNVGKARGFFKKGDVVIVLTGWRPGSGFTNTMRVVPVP
# [2] = biological target: the molecule itself; assay: cross-linking; Flag-PKM2 purified on Flag beads from H1299 extracts, DSS crosslinking (1.5 mM, room temperature, 30 min), immunoblot
# [3] = biological target: the molecule itself; assay: SEC-MALS; 1 mg/ml protein in 150 mM NaCl, 20 mM Tris pH 7.5; Superdex 200 Increase, 0.3 ml/min; tetramer and monomer
binder,measurement,setting,value
"GST-Aurora A (natural protein, human, UniProt O14965 1-403, looked up, full-length Aurora A cloned into the BamH/XhoI sites of p-GEX-5X-3) MDRSKENCISGPVKATAPVGGPKRVLVTQQFPCQNPLPVNSGQAQRVLCPSNSSQRIPLQAQKLVSSHKPVQNQKQKQLQATSVPHPVSRPLNNTQKSKQPLPSAPENNPEEELASKQKNEESKKRQWALEDFEIGRPLGKGKFGNVYLAREKQSKFILALKVLFKAQLEKAGVEHQLRREVEIQSHLRHPNILRLYGYFHDATRVYLILEYAPLGTVYRELQKLSKFDEQRTATYITELANALSYCHSKRVIHRDIKPENLLLGSAGELKIADFGWSVHAPSSRRTTLCGTLDYLPPEMIEGRMHDEKVDLWSLGVLCYEFLVGKPPFEANTYQETYKRISRVEFTFPDFVTEGARDLISRLLKHNPSQRPMLREVLEHPWITANSSKPSNCQNKESASKQS",binding result,[1],binds
"shRNA-resistant Flag-PKM2 T45A (natural protein, Flag-tagged human PKM2 T45A with two silent nucleotide substitutions in the shRNA-targeted region, in the pGIPZ system; Monomer and tetramer are both spoken of; 4 copies is the tetramer seen by cross-linking; also called PKM2 T45A mutant; source: H1299 with endogenous PKM2 knocked down, retroviral expression, purified on Flag beads) not shown",stoichiometry N,[2],4
"His-PKM2 T45A mutant (natural protein, Monomer and tetramer are both spoken of; source: E. coli, purified) not shown",stoichiometry N,[3],4
